Assay [1] deals with T1, human calcitonin receptor (human, UniProt P30988 25-474).
T1 construct: whole, on cells; also called hCTR; hCT
T1 sequence (looked up): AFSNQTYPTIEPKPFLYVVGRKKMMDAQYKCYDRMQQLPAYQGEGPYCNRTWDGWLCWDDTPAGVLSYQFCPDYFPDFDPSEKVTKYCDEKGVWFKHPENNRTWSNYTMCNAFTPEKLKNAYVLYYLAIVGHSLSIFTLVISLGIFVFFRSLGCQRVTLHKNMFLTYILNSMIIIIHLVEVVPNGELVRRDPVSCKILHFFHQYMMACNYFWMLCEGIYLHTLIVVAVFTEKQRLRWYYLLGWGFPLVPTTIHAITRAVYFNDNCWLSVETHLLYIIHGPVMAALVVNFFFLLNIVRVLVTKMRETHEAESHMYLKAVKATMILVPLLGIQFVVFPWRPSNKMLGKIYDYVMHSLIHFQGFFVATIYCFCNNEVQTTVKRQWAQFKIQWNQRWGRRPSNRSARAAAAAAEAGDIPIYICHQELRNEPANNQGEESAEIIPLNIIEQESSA
Briefly: SPA radioligand competition (125I-calcitonin), membranes of BHK cells with human calcitonin receptor. An outline of the steps: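 BHK hCTR membranes 35 ng/μL + SPA beads 0.05 mg/well; buffer 50 mM Hepes pH 7.4, 1 mM CaCl2, 5 mM MgCl₂, 0.1% OA, 0.02% Tween20. 120 min, 25° C., shaking. Scintillation count; IC50 by one-site binding competition.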
(Displacement assays read how much labelled ligand stays bound in the presence of the test substance.)

The target of assay [2] is T1, human calcitonin receptor. Briefly: ratio of IC50 at human calcitonin receptor to IC50 at human amylin receptor (SPA competition assays). An outline of the steps:
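IC₅₀ values were derived by one-site competition analysis of SPA counts. Cell membranes (35 ng/μL) with SPA beads were incubated with test compounds for 120 min at 25° C in Hepes buffer, pH 7.4, containing CaCl2, MgCl₂, OA and Tween20.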

Numbered stars: 1 amine (or outer) side, 2 acyl side, 3 side chain; on linkers, the order of the positions; unused ones are H or OH. Bridge positions count the residues as written; N and C are the ends. Side chains are listed from the residue outwards. Ends that are not written are not given here. * marks the point of attachment. C20 diacid = O=C(O)CCCCCCCCCCCCCCCCCCC(=O)*; C18 diacid = O=C(O)CCCCCCCCCCCCCCCCC(=O)*; C16 diacid = O=C(O)CCCCCCCCCCCCCCC(=O)*; γGlu = O=C(O)[C@H](CCC(=O)[*:2])N[*:1]; C14 diacid = O=C(O)CCCCCCCCCCCCC(=O)*

Broadly, the IC50 is the concentration at which inhibition is half-maximal.

B1: N^ε1-[(4S)-4-carboxy-4-(17-carboxyheptadecanoylamino)butanoyl]-[Arg17,Pro21,Pro27,His34]-h-amylin (peptide)
peptide: K([γGlu-C18 diacid])CNTATCATQRLANFLRHSSPNFGAIPSSTNVGHNTY-NH2
modifications: disulfide 2-7; N-terminus assumed
SMILES: CC[C@H](C)[C@H](NC(=O)[C@H](C)NC(=O)CNC(=O)[C@H](Cc1ccccc1)NC(=O)[C@H](CC(N)=O)NC(=O)[C@@H]1CCCN1C(=O)[C@H](CO)NC(=O)[C@H](CO)NC(=O)[C@H](Cc1c[nH]cn1)NC(=O)[C@H](CCCNC(=N)N)NC(=O)[C@H](CC(C)C)NC(=O)[C@H](Cc1ccccc1)NC(=O)[C@H](CC(N)=O)NC(=O)[C@H](C)NC(=O)[C@H](CC(C)C)NC(=O)[C@H](CCCNC(=N)N)NC(=O)[C@H](CCC(N)=O)NC(=O)[C@@H](NC(=O)[C@H](C)NC(=O)[C@@H]1CSSC[C@H](NC(=O)[C@@H](N)CCCCNC(=O)CC[C@H](NC(=O)CCCCCCCCCCCCCCCCC(=O)O)C(=O)O)C(=O)N[C@@H](CC(N)=O)C(=O)N[C@@H]([C@@H](C)O)C(=O)N[C@@H](C)C(=O)N[C@@H]([C@@H](C)O)C(=O)N1)[C@@H](C)O)C(=O)N1CCC[C@H]1C(=O)N[C@@H](CO)C(=O)N[C@@H](CO)C(=O)N[C@H](C(=O)N[C@@H](CC(N)=O)C(=O)N[C@H](C(=O)NCC(=O)N[C@@H](Cc1c[nH]cn1)C(=O)N[C@@H](CC(N)=O)C(=O)N[C@H](C(=O)N[C@@H](Cc1ccc(O)cc1)C(N)=O)[C@@H](C)O)C(C)C)[C@@H](C)O
In the case of B1, the IC50 in assay [1] came out at 22.7 nM. The “Ratio hCT/hAmylin binding” value in assay [2] came out at 59.4.

B2: N^ε1-[(4S)-4-carboxy-4-(13-carboxytridecanoylamino)butanoyl]-[Arg17,Pro21,Pro27,His34]-h-amylin (peptide)
peptide: K([γGlu-C14 diacid])CNTATCATQRLANFLRHSSPNFGAIPSSTNVGHNTY-NH2
modifications: disulfide 2-7; N-terminus assumed
SMILES: CC[C@H](C)[C@H](NC(=O)[C@H](C)NC(=O)CNC(=O)[C@H](Cc1ccccc1)NC(=O)[C@H](CC(N)=O)NC(=O)[C@@H]1CCCN1C(=O)[C@H](CO)NC(=O)[C@H](CO)NC(=O)[C@H](Cc1c[nH]cn1)NC(=O)[C@H](CCCNC(=N)N)NC(=O)[C@H](CC(C)C)NC(=O)[C@H](Cc1ccccc1)NC(=O)[C@H](CC(N)=O)NC(=O)[C@H](C)NC(=O)[C@H](CC(C)C)NC(=O)[C@H](CCCNC(=N)N)NC(=O)[C@H](CCC(N)=O)NC(=O)[C@@H](NC(=O)[C@H](C)NC(=O)[C@@H]1CSSC[C@H](NC(=O)[C@@H](N)CCCCNC(=O)CC[C@H](NC(=O)CCCCCCCCCCCCC(=O)O)C(=O)O)C(=O)N[C@@H](CC(N)=O)C(=O)N[C@@H]([C@@H](C)O)C(=O)N[C@@H](C)C(=O)N[C@@H]([C@@H](C)O)C(=O)N1)[C@@H](C)O)C(=O)N1CCC[C@H]1C(=O)N[C@@H](CO)C(=O)N[C@@H](CO)C(=O)N[C@H](C(=O)N[C@@H](CC(N)=O)C(=O)N[C@H](C(=O)NCC(=O)N[C@@H](Cc1c[nH]cn1)C(=O)N[C@@H](CC(N)=O)C(=O)N[C@H](C(=O)N[C@@H](Cc1ccc(O)cc1)C(N)=O)[C@@H](C)O)C(C)C)[C@@H](C)O
As to B2, in assay [1], the IC50 was 24.3 nM. The “Ratio hCT/hAmylin binding” value in assay [2] turned out to be 23.5.

B3: N^ε1-[(4S)-4-carboxy-4-(15-carboxypentadecanoylamino)butanoyl]-[Arg17,Pro21,Pro27,His34]-h-amylin (peptide)
peptide: K([γGlu-C16 diacid])CNTATCATQRLANFLRHSSPNFGAIPSSTNVGHNTY-NH2
modifications: disulfide 2-7; N-terminus assumed
SMILES: CC[C@H](C)[C@H](NC(=O)[C@H](C)NC(=O)CNC(=O)[C@H](Cc1ccccc1)NC(=O)[C@H](CC(N)=O)NC(=O)[C@@H]1CCCN1C(=O)[C@H](CO)NC(=O)[C@H](CO)NC(=O)[C@H](Cc1c[nH]cn1)NC(=O)[C@H](CCCNC(=N)N)NC(=O)[C@H](CC(C)C)NC(=O)[C@H](Cc1ccccc1)NC(=O)[C@H](CC(N)=O)NC(=O)[C@H](C)NC(=O)[C@H](CC(C)C)NC(=O)[C@H](CCCNC(=N)N)NC(=O)[C@H](CCC(N)=O)NC(=O)[C@@H](NC(=O)[C@H](C)NC(=O)[C@@H]1CSSC[C@H](NC(=O)[C@@H](N)CCCCNC(=O)CC[C@H](NC(=O)CCCCCCCCCCCCCCC(=O)O)C(=O)O)C(=O)N[C@@H](CC(N)=O)C(=O)N[C@@H]([C@@H](C)O)C(=O)N[C@@H](C)C(=O)N[C@@H]([C@@H](C)O)C(=O)N1)[C@@H](C)O)C(=O)N1CCC[C@H]1C(=O)N[C@@H](CO)C(=O)N[C@@H](CO)C(=O)N[C@H](C(=O)N[C@@H](CC(N)=O)C(=O)N[C@H](C(=O)NCC(=O)N[C@@H](Cc1c[nH]cn1)C(=O)N[C@@H](CC(N)=O)C(=O)N[C@H](C(=O)N[C@@H](Cc1ccc(O)cc1)C(N)=O)[C@@H](C)O)C(C)C)[C@@H](C)O
Take B3: the IC50 in assay [1] was 10.8 nM. Further, in assay [2], the “Ratio hCT/hAmylin binding” value is 18.5.

B4: N^-1-[(4S)-4-carboxy-4-(19-carboxynonadecanoylamino)butanoyl]-Gly[Arg1,His14,Arg17,Pro21,Pro27,Pro34]-h-amylin (peptide)
peptide: {C20 diacid-γGlu}-GRCNTATCATQRLAHFLRHSSPNFGAIPSSTNVGPNTY-NH2
modifications: disulfide 3-8
SMILES: CC[C@H](C)[C@H](NC(=O)[C@H](C)NC(=O)CNC(=O)[C@H](Cc1ccccc1)NC(=O)[C@H](CC(N)=O)NC(=O)[C@@H]1CCCN1C(=O)[C@H](CO)NC(=O)[C@H](CO)NC(=O)[C@H](Cc1c[nH]cn1)NC(=O)[C@H](CCCNC(=N)N)NC(=O)[C@H](CC(C)C)NC(=O)[C@H](Cc1ccccc1)NC(=O)[C@H](Cc1c[nH]cn1)NC(=O)[C@H](C)NC(=O)[C@H](CC(C)C)NC(=O)[C@H](CCCNC(=N)N)NC(=O)[C@H](CCC(N)=O)NC(=O)[C@@H](NC(=O)[C@H](C)NC(=O)[C@@H]1CSSC[C@H](NC(=O)[C@H](CCCNC(=N)N)NC(=O)CNC(=O)CC[C@H](NC(=O)CCCCCCCCCCCCCCCCCCC(=O)O)C(=O)O)C(=O)N[C@@H](CC(N)=O)C(=O)N[C@@H]([C@@H](C)O)C(=O)N[C@@H](C)C(=O)N[C@@H]([C@@H](C)O)C(=O)N1)[C@@H](C)O)C(=O)N1CCC[C@H]1C(=O)N[C@@H](CO)C(=O)N[C@@H](CO)C(=O)N[C@H](C(=O)N[C@@H](CC(N)=O)C(=O)N[C@H](C(=O)NCC(=O)N1CCC[C@H]1C(=O)N[C@@H](CC(N)=O)C(=O)N[C@H](C(=O)N[C@@H](Cc1ccc(O)cc1)C(N)=O)[C@@H](C)O)C(C)C)[C@@H](C)O
With B4, in assay [1], the IC50 worked out at 7.87 nM. In assay [2], the “Ratio hCT/hAmylin binding” value turned out to be 36.2.

B5: N{-1}-[(4S)-4-carboxy-4-(19-carboxynonadecanoylamino)butanoyl]-Gly[Arg1,His14,Arg17,Pro21,Pro27]-h-amylin (peptide)
peptide: {C20 diacid-γGlu}-GRCNTATCATQRLAHFLRHSSPNFGAIPSSTNVGSNTY-NH2
modifications: disulfide 3-8
SMILES: CC[C@H](C)[C@H](NC(=O)[C@H](C)NC(=O)CNC(=O)[C@H](Cc1ccccc1)NC(=O)[C@H](CC(N)=O)NC(=O)[C@@H]1CCCN1C(=O)[C@H](CO)NC(=O)[C@H](CO)NC(=O)[C@H](Cc1c[nH]cn1)NC(=O)[C@H](CCCNC(=N)N)NC(=O)[C@H](CC(C)C)NC(=O)[C@H](Cc1ccccc1)NC(=O)[C@H](Cc1c[nH]cn1)NC(=O)[C@H](C)NC(=O)[C@H](CC(C)C)NC(=O)[C@H](CCCNC(=N)N)NC(=O)[C@H](CCC(N)=O)NC(=O)[C@@H](NC(=O)[C@H](C)NC(=O)[C@@H]1CSSC[C@H](NC(=O)[C@H](CCCNC(=N)N)NC(=O)CNC(=O)CC[C@H](NC(=O)CCCCCCCCCCCCCCCCCCC(=O)O)C(=O)O)C(=O)N[C@@H](CC(N)=O)C(=O)N[C@@H]([C@@H](C)O)C(=O)N[C@@H](C)C(=O)N[C@@H]([C@@H](C)O)C(=O)N1)[C@@H](C)O)C(=O)N1CCC[C@H]1C(=O)N[C@@H](CO)C(=O)N[C@@H](CO)C(=O)N[C@H](C(=O)N[C@@H](CC(N)=O)C(=O)N[C@H](C(=O)NCC(=O)N[C@@H](CO)C(=O)N[C@@H](CC(N)=O)C(=O)N[C@H](C(=O)N[C@@H](Cc1ccc(O)cc1)C(N)=O)[C@@H](C)O)C(C)C)[C@@H](C)O
notes: also called compound 99
For B5, the half-maximal inhibitory concentration (IC50) in assay [1] amounted to 35 nM. Moreover, the “Ratio hCT/hAmylin binding” value in assay [2] came to 100.

Source of the values: patent US20140087995A1 (published 2014).
